# Assay results taken from article PMC2853223 (ACS chemical biology, 2009).
# T1: PikAIII ACPdd (N-terminally His-tagged discrete C-terminal docking domain of PikAIII) (UniProt Q9ZGI3 1479-1562)
# T1 sequence (looked up): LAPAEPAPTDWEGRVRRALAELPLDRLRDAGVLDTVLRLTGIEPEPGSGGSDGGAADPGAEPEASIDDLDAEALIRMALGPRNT
# B1: P3P4dock (amino acids 1534-1562 of PikAIII ACPdd fused to amino acids 1-37 of the KSdd of PikAIV) (other)
# chain: SNADPGAEPEASIDDLDAEALIRMALGPRNTMTSSNEQLVDALRASLKENEELRKESRRRADRRQEPM
# B2: PikAIV KSdd residues 1-37 (the PikAIV part of P3P4dock) (domain or fragment, UniProt Q9ZGI2 1-37, looked up)
# chain: MTSSNEQLVDALRASLKENEELRKESRRRADRRQEPM
# B3: PikAIII ACPdd-FL (PikAIII ACPdd with an added C-terminal cysteine labelled with BODIPY-FL) (domain or fragment)
# chain: LAPAEPAPTDWEGRVRRALAELPLDRLRDAGVLDTVLRLTGIEPEPGSGGSDGGAADPGAEPEASIDDLDAEALIRMALGPRNTC
# modifications: BODIPY-FL (iodoacetamide) on the added C-terminal cysteine
# Legend:
# [1] = target: the molecule itself; test: crystal structure
# [2] = target: B2; test: crystal structure
# [3] = target: T1, PikAIII ACPdd (N-terminally His-tagged …); test: SPR
# [4] = target: PikAIV full module (post-translational modification of its ACP domain (grown in BAP1 E. coli cells)); test: fluorescence polarisation
binder,measurement,setting,value
B1,binding result,[1],binds
"ADPGAEPEASIDDLDAEALIRMALGPRNT (domain or fragment, UniProt Q9ZGI3 1534-1562, looked up) [PikAIII ACPdd residues 1534-1562 (the PikAIII part of P3P4dock)]",binding result,[2],binds
"MTSSNEQLVDALRASLKENEELRKESRRRADRRQEPM (domain or fragment, UniProt Q9ZGI2 1-37, looked up) [PikAIV KSdd (discrete N-terminal docking domain of PikAIV, tagless)]",Kd,[3],73 ± 43 µM
same,koff,[3],0.21 ± 0.03 s⁻¹
same,kon,[3],3000 ± 1800 M⁻¹ s⁻¹
B2,binding result,[1],binds
B3,Kd,[4],5 ± 1 µM
